The values that follow come from patent US20250282879A1.

One may read the Kd as the equilibrium constant for the complex coming apart. As a reminder, the koff is the rate constant with which the complex falls apart. In general, kon refers to the rate constant with which the complex forms.

Numbering of substitutions follows the chain as printed. Where two headings read alike, the source gives them in different places.

Assay [1] deals with human IL-4R on cells (HEK-Blue IL-4/IL-13 cells, human PBMC, human whole blood) (human) (UniProt P24394). Nature of the assay: cell-based or functional assay.
Another assay concerns the target Human IL-4R-Fc (human) (UniProt P24394). Nature of the assay: SPR, hIL-4R-Fc captured, scFv analyte. A general note: In SPR one partner is held on a chip, and binding of the other changes the refractive index at the surface.
In assay [2] the target is cynomolgus IL-4R-Fc (cynomolgus monkey (Macaca fascicularis)). Nature of the assay: SPR, capture setup, cynomolgus IL-4R-Fc captured.
Sequence of cynomolgus IL-4R-Fc (cynomolgus monkey (Macaca fascicularis)) (chain, as listed by the source): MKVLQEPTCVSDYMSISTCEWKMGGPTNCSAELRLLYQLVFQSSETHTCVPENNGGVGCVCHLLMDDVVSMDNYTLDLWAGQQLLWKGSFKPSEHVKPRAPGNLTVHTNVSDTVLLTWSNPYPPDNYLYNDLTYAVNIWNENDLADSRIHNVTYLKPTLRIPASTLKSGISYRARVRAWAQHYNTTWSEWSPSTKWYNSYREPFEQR
The target in assay [3] is marmoset IL-4R ECD (marmoset (Callithrix jacchus)) (UniProt Q0PIT7). Nature of the assay: SPR, direct setup, marmoset IL-4R ECD immobilized.
Sequence of marmoset IL-4R ECD (marmoset (Callithrix jacchus)) (Q0PIT7 entry or part of it limits assumed): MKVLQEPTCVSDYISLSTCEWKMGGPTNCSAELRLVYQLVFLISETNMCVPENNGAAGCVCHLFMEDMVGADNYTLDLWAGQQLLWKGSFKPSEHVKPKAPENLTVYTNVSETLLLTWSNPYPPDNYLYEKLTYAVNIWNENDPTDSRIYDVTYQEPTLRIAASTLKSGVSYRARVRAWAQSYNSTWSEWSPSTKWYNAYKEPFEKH
The target of assay [4] is cynomolgus IL-4R ECD (cynomolgus monkey (Macaca fascicularis)). Nature of the assay: SPR, direct setup, cynomolgus IL-4R ECD immobilized.
Sequence of cynomolgus IL-4R ECD (cynomolgus monkey (Macaca fascicularis)) (A0A2K5 entry or part of it limits assumed): as the sequence (chain, as listed by the source) above
Assay [5] has as its target recombinant human IL-31 protein (Peprotech) (human) (UniProt Q6EBC2).
The target is the same in assay [6]. The source holds these as a separate data set.
Assay [7] shares this target. The source holds these as a separate data set.
Assay [8] shares this target. The source holds these as a separate data set.
In assay [9] the target is recombinant cynomolgus monkey IL-31 (ECD with His Tag, Sino Biological) (cynomolgus monkey).
Assay [10] has as its target recombinant human IL-31 protein (Peprotech) (human) (UniProt Q6EBC2). Nature of the assay: cell-based or functional assay.
Assay [11] concerns the target recombinant cynomolgus monkey IL-31 (ECD with His Tag, Sino Biological) (cynomolgus monkey). As to the kind of experiment: SPR, IL-31-His captured, scFv analyte (30 and 10 nM).
Assay [12] shares this target. Nature of the assay: SPR, IL-31-His captured, scFv analyte, screening mode.
The target is the same in assay [13]. As to the kind of experiment: SPR, IL-31-His captured, scFv analyte, full titration mode.

Sequence of recombinant human IL-31 protein (Peprotech) (human) (Q6EBC2 24-164 limits assumed): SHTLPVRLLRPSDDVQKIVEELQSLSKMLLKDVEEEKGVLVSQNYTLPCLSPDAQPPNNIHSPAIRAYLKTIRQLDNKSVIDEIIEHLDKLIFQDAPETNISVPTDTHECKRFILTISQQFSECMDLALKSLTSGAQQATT

B1: PRO1517 (scFv, V domains shown)
VH: EVQLVESGGGLVQPGGSLRLSCAASGFSSSSAHYMCWVRQAPGKGLEWIGCIYAGSRGSTYYASWAKGRFTISRDNSKNTVYLQMNSLRAEDTAVYYCARAAFVNRGVSWIWPYYFSLWGQGTLVTVSS
VL: DIQMTQSPSSLSASVGDRVTITCQASEDIESYLAWYQQKPGKAPKLLIYRASTLAYGVPSRFSGSGSGTDFTLTISSLQPEDFATYYCLGSSYSTGSNIFGTGTKVTVLG
In the case of B1, in assay [1], the IC50, neutralization of hIL-4-induced signaling, stat-6 reporter gene assay amounted to 1.44 ng/mL; the IC50, neutralization of hIL-13-induced signaling, stat-6 reporter gene assay amounted to 1.83 ng/mL; the rel. IC50 (IC50, dupilumab/IC50, test sample), hIL-4 came to 0.39; the rel. IC50 (IC50, dupilumab/IC50, test sample), hIL-13 was found to be 0.57. In the assay with Human IL-4R-Fc (human), this molecule displayed a Kd of 0.0055 nM, a koff of 1.95e-05 s⁻¹ and a kon of 3.55e+06 M⁻¹ s⁻¹. In assay [2], this molecule showed a Kd of 0.0946 nM, a koff of 0.000182 s⁻¹ and a kon of 1.92e+06 M⁻¹ s⁻¹. In assay [3], this molecule displayed a Kd of 0.392 nM, a koff of 0.00105 s⁻¹ and a kon of 2.67e+06 M⁻¹ s⁻¹. Further, in assay [4], the Kd amounted to 0.681 nM, the koff worked out at 0.000404 s⁻¹ and the kon is 594000 M⁻¹ s⁻¹.

B2: PRO1898 (scFv, V domains shown)
VH: B1 VH
VL: B1 VL with S14R, T69R
With B2, in [1], the IC50, neutralization of hIL-4 induced signaling, stat-6 reporter gene assay is 1 ng/mL; the IC50, neutralization of hIL-13 induced signaling, stat-6 reporter gene assay worked out at 1.15 ng/mL; the rel. IC50 (IC50, dupilumab/IC50, test sample), hIL-4 is 1.15; the rel. IC50 (IC50, dupilumab/IC50, test sample), hIL-13 amounted to 0.87.

B3: PRO1899 (scFv, V domains shown)
VH: EVQLVESGGGRVQPGGSLRLSCAASGFSSSSAHYMCWVRQAPGKGLEWIGCIYAGSRGSTYYASWAKGRFTISKASSTTVYLQMNSLRAEDTATYYCARAAFVNRGVSWIWPYYFSLWGQGTQVTVSS
VL: B1 VL
In assay [1], B3 showed an IC50, neutralization of hIL-4 induced signaling, stat-6 reporter gene assay of 0.71 ng/mL; an IC50, neutralization of hIL-13 induced signaling, stat-6 reporter gene assay of 0.56 ng/mL; a rel. IC50 (IC50, dupilumab/IC50, test sample), hIL-4 of 1.61; a rel. IC50 (IC50, dupilumab/IC50, test sample), hIL-13 of 1.8.

B4: BMS-981164 (antibody, from another filing, V domains shown)
VH: QVQLVQSGAEVKKPGASVKVSCKASGYTLTRYWMQWVRQAPGQGLEWMGAIYPGDGDTRYSQKFQGRVTLTADKSTSTAYMELSSLRSEDTAVYYCAFPDGYYAAPYGMDYWGQGTLVTVSS
VL: DIQMTQSPSSLSASVGDRVTITCRASGNIHNYLAWYQQKPGKVPKLLIYNAKTLADGVPSRFSGSRSETQYSLTISSLQPEDVATYYCQHFWSTPWTFGQGTKVEIKR
In the case of B4, the IC50 (read off the curve), human IL-31-induced IL-31RA/OSMR dimerization in [5] came out at 0.2 nM; in [6], 0.1 nM; in assay [7], 0.07 nM; in [8] it was 0.06 nM. For the same molecule, the IC50, cynomolgus IL-31-induced IL-31RA/OSMR dimerization (RLU) [table under the graph] in assay [9] worked out at 0.178 nM.

B5: PRO1900 (scFv, V domains shown)
VH: QSQLVESGGGRVQPGGSLRLSCAASGFSFSANYWICWVRQAPGKGLEWIVCIYIGSRADTYYAPWAKGRFTISKDNSKNTVYLQMNSLRAEDTATYFCARFSSGIYDLDRFFLWGQGTQVTVSS
V domain: AFQLTQSPSSLSASVGDRVTITCQASQSIDSWLAWYQQKPGKPPKLLIYQASKLASGVPSRFSGSGSGTDYTLTISSLQPEDFATYYCQTYYGGGHIGWGFGTGTKVTV
Turning to B5, in assay [10], the IC50, neutralization of hIL-31-induced signaling in IL-31RA/OSMR dimerization assay is 8.21 ng/mL and the rel. IC50 (IC50, BMS-981164/IC50, test sample) is 0.73. For the same molecule, in [11], the Kd stood at 1.07 nM, the koff was 0.000594 s⁻¹ and the kon came to 554000 M⁻¹ s⁻¹.

B6: PRO1903 (scFv, V domains shown)
VH: B5 VH with R11L, T95V, Q119L
V domain: B5 V domain with D30E
As for B6, in assay [10], the IC50, neutralization of hIL-31-induced signaling in IL-31RA/OSMR dimerization assay amounted to 7.98 ng/mL and the rel. IC50 (IC50, BMS-981164/IC50, test sample) stood at 1.49. Also, in [11], the Kd turned out to be 1.39 nM, the koff was found to be 0.000605 s⁻¹ and the kon was 434000 M⁻¹ s⁻¹.

B7: PRO1643 (scFv, V domains shown)
VH: B5 VH with R11L, T95V, Q119L
V domain: B5 V domain
Regarding B7, in assay [11], the Kd stood at 1.17 nM, the koff was 0.000587 s⁻¹ and the kon was determined as 501000 M⁻¹ s⁻¹. In assay [12], the Kd came to 0.583 nM, the koff amounted to 0.000444 s⁻¹ and the kon is 761000 M⁻¹ s⁻¹. Besides, in [13], the Kd amounted to 0.557 nM, the koff was 0.000426 s⁻¹ and the kon amounted to 764000 M⁻¹ s⁻¹.
